Common to all, as to test: other fluorescence titration; 5-IAF-labelled Ypd1-T12C (30 pmol in 1.9 mL) titrated with Sln1-R1, 10 nM to 6 uM; 23.0 °C; 20 mM Tris pH 8.0, 50 mM NaCl, 10 mM MgCl2; excitation 492 nm, emission 515 nm; quadratic fit; 'observed' Kd, three replicate titrations
What all share (details): both partners purified

The target of assay [1] is T1, Ypd1-T12C-G68V, fluorescein-labelled (S. cerevisiae, UniProt Q07688 3-167, T12C | G68V, 5-iodoacetamidofluorescein (5-IAF) on the cysteine introduced at position 12).
T1 construct: Ypd1, HPt protein of Saccharomyces cerevisiae; double mutant made on pET-Ypd1-T12C; also called Ypd1-G68V
T1 sequence: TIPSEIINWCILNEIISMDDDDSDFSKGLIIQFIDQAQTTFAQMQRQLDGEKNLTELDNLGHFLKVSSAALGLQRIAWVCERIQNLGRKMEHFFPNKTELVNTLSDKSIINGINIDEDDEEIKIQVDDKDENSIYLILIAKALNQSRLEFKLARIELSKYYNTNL

The target in assay [2] is T2, Ypd1-T12C~F (fluorescein-labelled Ypd1-T12C) (S. cerevisiae, UniProt Q07688 3-167, T12C, 5-iodoacetamidofluorescein (5-IAF) on the cysteine introduced at position 12 (70-90% of the molecules labelled)).
T2 construct: Ypd1, histidine phosphotransfer (HPt) protein of Saccharomyces cerevisiae; YPD1 gene in pET21a(+), T12C; also called WT; 5-IAF labelled Ypd1
T2 sequence: T1 sequence with V66G

In assay [3] the target is T3, Ypd1-T12C-G68E, fluorescein-labelled (S. cerevisiae, UniProt Q07688 3-167, T12C | G68E, 5-iodoacetamidofluorescein (5-IAF) on the cysteine introduced at position 12).
T3 construct: Ypd1, HPt protein of Saccharomyces cerevisiae; double mutant made on pET-Ypd1-T12C; also called Ypd1-G68E
T3 sequence: T1 sequence with V66E

Assay [4] addresses T4, Ypd1-T12C-G68L, fluorescein-labelled (S. cerevisiae, UniProt Q07688 3-167, T12C | G68L, 5-iodoacetamidofluorescein (5-IAF) on the cysteine introduced at position 12).
T4 construct: Ypd1, HPt protein of Saccharomyces cerevisiae; double mutant made on pET-Ypd1-T12C; also called Ypd1-G68L
T4 sequence: T1 sequence with V66L

The target of assay [5] is T5, Ypd1-T12C-G68Q, fluorescein-labelled (S. cerevisiae, UniProt Q07688 1-167, T12C | G68Q, 5-iodoacetamidofluorescein (5-IAF) on the cysteine introduced at position 12).
T5 construct: Ypd1, HPt protein of Saccharomyces cerevisiae; double mutant made on pET-Ypd1-T12C; PDB 6M7W is the single mutant Ypd1-G68Q (from pUC-Ypd1, without T12C); also called Ypd1-G68Q
T5 sequence: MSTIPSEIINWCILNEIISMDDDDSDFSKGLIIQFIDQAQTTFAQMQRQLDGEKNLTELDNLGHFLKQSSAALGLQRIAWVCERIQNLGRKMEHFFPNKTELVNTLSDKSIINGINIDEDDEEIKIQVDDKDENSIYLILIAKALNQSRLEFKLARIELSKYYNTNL

The record followed here is paper PMC6341664, “Role of the highly conserved G68 residue in the yeast phosphorelay protein Ypd1: implications for interactions between histidine phosphotransfer (HPt) and response regulator proteins” (BMC Biochemistry, 2019).

Positions count from the first letter of the chain named.

In general, Kd refers to the concentration at which binding is half-saturated.

B1: Sln1-R1 (receiver domain of Sln1) (domain or fragment, S. cerevisiae)
chain: TSVKILVVEDNHVNQEVIKRMLNLEGIENIELACDGQEAFDKVKELTSKGENYNMIFMDVQMPKVDGLLSTKMIRRDLGYTSPIVALTAFADDSNIKECLESGMNGFLSKPIKRPKLKTILTEFCAAYQGKKNNK
notes: Receiver domain (R1) of the hybrid sensor histidine kinase Sln1 of Saccharomyces cerevisiae, in the vector pFJS16; neither is said here; also called receiver domain from Sln1
B1: the Kd in assay [1] came out at 2900 nM; in assay [2], 940 nM; in assay [3], 500 nM; in assay [4] it was 1300 nM; in assay [5] it was 600 nM.
